# Measurements from patent publication US20100311820, “NUCLEIC ACID MODULATORS OF GLYCOPROTEIN VI” (Regado Biosciences, Inc, published 2010).
# T1: Glycoprotein VI extracellular domain (Gln21-Lys267) (Homo sapiens, UniProt Q9HCN6 SEQ:1-247)
# T1 chain: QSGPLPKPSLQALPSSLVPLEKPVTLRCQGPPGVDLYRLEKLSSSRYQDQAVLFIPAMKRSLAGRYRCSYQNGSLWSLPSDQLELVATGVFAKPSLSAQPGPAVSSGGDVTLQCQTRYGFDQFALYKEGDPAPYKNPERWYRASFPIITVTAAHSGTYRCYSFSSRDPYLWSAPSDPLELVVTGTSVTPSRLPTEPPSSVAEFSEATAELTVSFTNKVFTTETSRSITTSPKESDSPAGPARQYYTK
# B1: EF-3 annealed to 3' DNA primer (mixed)
# RNA: GGGAGGACGAUGCGGAUCACACCGCGUCUUGCGUAAGCCUCCUACUAACGGAUCGCAGACGACUCGCUGAGGAUCCGAGA
# DNA: TCTCGGATCCTCAGCGAGTCGTCTG
# modifications: RNA strand 2'-F C and U; 2'-OH A and G
# Target: T1, Glycoprotein VI extracellular domain …
# Test: filter; binding comparable with and without annealed 3' primer
# Conditions: tags: C-terminal His6; R&D Systems 3627-GP; label: 5'-32P; 3' fixed region paired with DNA primer
# Method: The reaction was phenol:chloroform:isoamyl alcohol (25:24:1) extracted, chloroform: isoamyl:alcohol (24:1) extracted, and ethanol precipitated. Three pmoles of dephosphorylated RNA was end labeled with T4 Poylnucleotide Kinase with supplied buffer, and 20 μCi of γ-P³²-ATP and subsequently cleaned with a Biorad MicroBio Spin P-30 spin column. End-labeled RNA was diluted to a final concentration of 2000 cpm/μL and heat denatured at 65° C. for 5 minutes. RNA and GPVI dilutions were equilibrated at 37° C. prior to use. RNA (5 μL) was added to varying concentrations of GPVI (15 μL) at 37° C. and incubated together for 5 to 15 minutes. The complexed RNA/GPVI protein mixture was then loaded over a Protean BA85 nitrocellulose membrane, overlayed on a Genescreen Plus Nylon membrane, in a 96 well vacuum manifold system with washing. The membranes were exposed to a phosphorimager screen, scanned, and quantitated with a Molecular Dynamics Storm 840 Phosphorimager. The fraction bound was calculated by dividing the counts on the nitrocellulose by the total counts and adjusting for the background. Results for binding of enriched ligand libraries from round 10 E2 and round 10 EF of the SELEX as compared to the GPVI-naïve starting ligand library are shown in FIG. 3. […]
binder,measurement,value
B1,binding result,binds
